This is an account of results in publication PMC8137924, “Structural basis for allosteric regulation of Human Topoisomerase IIα” (Nature Communications, 2021).

This data set deals with the molecule itself. Briefly: cryo-EM structure; hTopo IIα with 30 bp doubly nicked DNA (1:1, 20 µM), 0.5 mM etoposide, 0.5 mM ADPNP, cross-linked with 1 mM BS3; 20 mM Hepes, 100 mM KAc, 50 mM Na-glutamate, 5 mM MgAc2, 0.5 mM TCEP, pH 7.5, 8 mM CHAPSO; single-particle analysis, State 1 (closed) and State 2 (pre-open).

B1: full-length human Topo IIα (1–1531) (enzyme, UniProt P11388 1-1531, looked up)
chain: MEVSPLQPVNENMQVNKIKKNEDAKKRLSVERIYQKKTQLEHILLRPDTYIGSVELVTQQMWVYDEDVGINYREVTFVPGLYKIFDEILVNAADNKQRDPKMSCIRVTIDPENNLISIWNNGKGIPVVEHKVEKMYVPALIFGQLLTSSNYDDDEKKVTGGRNGYGAKLCNIFSTKFTVETASREYKKMFKQTWMDNMGRAGEMELKPFNGEDYTCITFQPDLSKFKMQSLDKDIVALMVRRAYDIAGSTKDVKVFLNGNKLPVKGFRSYVDMYLKDKLDETGNSLKVIHEQVNHRWEVCLTMSEKGFQQISFVNSIATSKGGRHVDYVADQIVTKLVDVVKKKNKGGVAVKAHQVKNHMWIFVNALIENPTFDSQTKENMTLQPKSFGSTCQLSEKFIKAAIGCGIVESILNWVKFKAQVQLNKKCSAVKHNRIKGIPKLDDANDAGGRNSTECTLILTEGDSAKTLAVSGLGVVGRDKYGVFPLRGKILNVREASHKQIMENAEINNIIKIVGLQYKKNYEDEDSLKTLRYGKIMIMTDQDQDGSHIKGLLINFIHHNWPSLLRHRFLEEFITPIVKVSKNKQEMAFYSLPEFEEWKSSTPNHKKWKVKYYKGLGTSTSKEAKEYFADMKRHRIQFKYSGPEDDAAISLAFSKKQIDDRKEWLTNFMEDRRQRKLLGLPEDYLYGQTTTYLTYNDFINKELILFSNSDNERSIPSMVDGLKPGQRKVLFTCFKRNDKREVKVAQLAGSVAEMSSYHHGEMSLMMTIINLAQNFVGSNNLNLLQPIGQFGTRLHGGKDSASPRYIFTMLSSLARLLFPPKDDHTLKFLYDDNQRVEPEWYIPIIPMVLINGAEGIGTGWSCKIPNFDVREIVNNIRRLMDGEEPLPMLPSYKNFKGTIEELAPNQYVISGEVAILNSTTIEISELPVRTWTQTYKEQVLEPMLNGTEKTPPLITDYREYHTDTTVKFVVKMTEEKLAEAERVGLHKVFKLQTSLTCNSMVLFDHVGCLKKYDTVLDILRDFFELRLKYYGLRKEWLLGMLGAESAKLNNQARFILEKIDGKIIIENKPKKELIKVLIQRGYDSDPVKAWKEAQQKVPDEEENEESDNEKETEKSDSVTDSGPTFNYLLDMPLWYLTKEKKDELCRLRNEKEQELDTLKRKSPSDLWKEDLATFIEELEAVEAKEKQDEQVGLPGKGGKAKGKKTQMAEVLPSPRGQRVIPRITIEMKAEAEKKNKKKIKNENTEGSPQEDGVELEGLKQRLEKKQKREPGTKTKKQTTLAFKPIKKGKKRNPWSDSESDRSSDESNFDVPPRETEPRRAATKTKFTMDLDSDEDFSDFDEKTDDEDFVPSDASPPKTKTSPKLSNKELKPQKSVVSDLEADDVKGSVPLSSSPPATHFPDETEITNPVPKKNVTVKKTAAKSQSSTSTTGAKKRAAPKGTKRDPALNSGVSQKPDPAKTKNRRKRKPSTSDDSDSNFEKIVSKAVTSKKSKGESDDFHMDFDSAVAPRAKSVRAKKPIKYLEESDEDDLF
notes: human DNA topoisomerase IIα (TOP2A gene), full length, residues 1-1531; Homodimer; Tags were removed with P3C (PreScission) protease; also called hTopo IIα; human topoisomerase IIα isoform; source: BHK21 C13-2P cells infected with recombinant MVA-T7 virus, purified (Ni chelating resin, StrepTrap, heparin); not shown: Twin-strep, N-terminal, cleaved; His10, C-terminal, cleaved
With B1, the binding result was “binds”.
